Test results from paper PMC13423800, “De novo design of potent CRISPR–Cas13 inhibitors” (Nature Chemical Biology, 2024).

T1: Leptotrichia buccalis (Lbu) CRISPR–Cas13a (Leptotrichia buccalis, UniProt C7NBY4 1-1159)
T1 sequence: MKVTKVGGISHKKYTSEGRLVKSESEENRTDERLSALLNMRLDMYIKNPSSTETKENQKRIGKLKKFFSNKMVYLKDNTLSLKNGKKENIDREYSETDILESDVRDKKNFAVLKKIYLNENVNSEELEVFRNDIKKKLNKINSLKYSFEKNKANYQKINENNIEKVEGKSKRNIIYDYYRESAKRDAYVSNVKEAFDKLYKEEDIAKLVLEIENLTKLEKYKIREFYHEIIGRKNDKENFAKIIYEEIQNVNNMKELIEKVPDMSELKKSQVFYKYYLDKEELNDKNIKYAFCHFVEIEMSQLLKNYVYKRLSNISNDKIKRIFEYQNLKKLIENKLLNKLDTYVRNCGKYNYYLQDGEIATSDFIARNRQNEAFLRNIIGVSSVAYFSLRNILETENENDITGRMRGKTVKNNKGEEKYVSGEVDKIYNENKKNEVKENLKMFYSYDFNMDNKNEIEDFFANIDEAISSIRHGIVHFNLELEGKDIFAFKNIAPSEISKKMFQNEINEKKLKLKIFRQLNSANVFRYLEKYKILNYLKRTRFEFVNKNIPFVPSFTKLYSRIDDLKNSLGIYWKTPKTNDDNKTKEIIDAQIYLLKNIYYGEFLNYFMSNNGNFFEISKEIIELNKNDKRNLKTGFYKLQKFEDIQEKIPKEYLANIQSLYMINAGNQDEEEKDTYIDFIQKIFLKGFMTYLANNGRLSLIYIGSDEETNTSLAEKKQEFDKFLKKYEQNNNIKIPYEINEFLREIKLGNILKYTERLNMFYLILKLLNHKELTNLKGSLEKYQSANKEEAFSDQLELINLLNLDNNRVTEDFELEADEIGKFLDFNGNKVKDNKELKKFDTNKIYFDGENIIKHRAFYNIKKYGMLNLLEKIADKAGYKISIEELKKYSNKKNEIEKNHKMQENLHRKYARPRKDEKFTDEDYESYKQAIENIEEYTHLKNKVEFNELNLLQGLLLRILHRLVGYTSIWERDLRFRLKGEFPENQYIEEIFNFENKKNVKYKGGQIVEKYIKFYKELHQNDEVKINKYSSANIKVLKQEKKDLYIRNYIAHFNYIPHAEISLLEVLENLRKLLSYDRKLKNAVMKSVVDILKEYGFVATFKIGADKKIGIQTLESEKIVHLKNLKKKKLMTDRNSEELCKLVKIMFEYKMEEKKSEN

T2: LbuCas13a (Leptotrichia buccalis, UniProt C7NBY4)
T2 sequence: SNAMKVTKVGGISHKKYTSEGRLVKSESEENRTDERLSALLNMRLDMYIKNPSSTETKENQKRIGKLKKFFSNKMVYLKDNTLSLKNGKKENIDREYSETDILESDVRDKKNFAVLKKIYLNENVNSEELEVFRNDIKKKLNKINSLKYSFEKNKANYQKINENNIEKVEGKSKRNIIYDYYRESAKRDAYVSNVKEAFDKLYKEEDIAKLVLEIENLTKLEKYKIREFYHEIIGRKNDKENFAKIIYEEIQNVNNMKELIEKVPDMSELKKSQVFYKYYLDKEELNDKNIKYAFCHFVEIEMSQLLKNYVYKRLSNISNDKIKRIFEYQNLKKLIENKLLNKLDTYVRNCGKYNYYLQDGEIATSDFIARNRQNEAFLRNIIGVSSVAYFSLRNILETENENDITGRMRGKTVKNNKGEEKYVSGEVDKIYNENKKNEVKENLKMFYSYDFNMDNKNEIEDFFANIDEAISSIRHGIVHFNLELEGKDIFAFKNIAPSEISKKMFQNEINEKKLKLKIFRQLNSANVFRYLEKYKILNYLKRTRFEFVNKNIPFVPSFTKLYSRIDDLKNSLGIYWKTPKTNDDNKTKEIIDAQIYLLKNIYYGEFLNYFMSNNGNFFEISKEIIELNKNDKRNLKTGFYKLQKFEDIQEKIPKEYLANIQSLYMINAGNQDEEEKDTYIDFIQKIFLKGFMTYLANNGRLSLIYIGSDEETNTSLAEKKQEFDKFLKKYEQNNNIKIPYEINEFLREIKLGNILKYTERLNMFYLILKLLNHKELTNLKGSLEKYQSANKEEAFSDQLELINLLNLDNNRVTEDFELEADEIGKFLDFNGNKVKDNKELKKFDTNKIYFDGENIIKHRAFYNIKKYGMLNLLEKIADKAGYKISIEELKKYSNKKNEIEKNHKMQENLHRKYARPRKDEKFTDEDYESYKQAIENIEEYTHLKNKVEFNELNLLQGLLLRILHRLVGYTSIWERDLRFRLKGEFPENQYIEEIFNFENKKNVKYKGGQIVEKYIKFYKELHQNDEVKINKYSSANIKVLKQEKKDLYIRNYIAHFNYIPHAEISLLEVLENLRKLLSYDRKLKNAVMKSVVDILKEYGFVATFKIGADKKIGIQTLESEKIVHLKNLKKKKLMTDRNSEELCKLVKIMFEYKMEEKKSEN


What was measured:
[1] = molecular target: T1, Leptotrichia buccalis (Lbu) …; experiment: cell-based or functional assay
[2] = molecular target: T2, LbuCas13a; experiment: fluorescence polarization; no AIcr (control); 40 nM aRNA, RNP titrated; FP: 1x Cas13a cleavage buffer (composition not in the material), RNP twofold dilutions, 40 nM FAM-aRNA, 2 uM AIcrVIA, 2 h at 37 C; details: protein: recombinant; tags: 6xHis-MBP, removed with TEV (SNA left at the N-terminus); label: 5'-6-FAM on aRNA; guide:target 24 bp; guide 5' repeat single-stranded/hairpin; target overhangs 5' C and 3' CC

Row | Binder | IC50 of inhibition of the LbuCas13a HEPN nuclease (velocity of reporter RNA cleavage by LbuCas13a–crRNA–aRNA against AIcrVIA concentration) [1] [nM] | binding result [2]
1 | AIcrVIA3 (designed binder) MAPKKYVVTVTIPVTDADLTVFLVVDIIVYAEKLGGTVTITAVKSENDSYSVTLEDLDKAAEELEKVGGSIVLTVTFDNKEKAEKVAEFAYLKAEEYNLKVDVEVKEEL | ~7 | –
2 | FP crRNA / 5'-FAM aRNA (mixed, first C of the aRNA is deoxyribose (C*)) RNA: UAGACCACCCCAAAAAUGAAGGGGACUAAAACUUUCUUUCUUUCCUUUUUCUGCCG ?: CCGGCAGAAAAAGGAAAGAAAGAAACC | – | binds
3 | AIcrVIA2 (designed binder) MNEKKEKARKEMKEIAEKAIKEIKKDPEKALEIAVKAVEEIGEIANESGDYKSGEENAWKVAEEYAKVTGDDDTAYDLMLAGDMIIDGKDAEEGYEILKEL | ~7 | –
